Three molecules from US20140162952A1 (ONCOTHERAPY SCIENCE, published 2014) can be followed below.

The target of test [1] is T1, HA-PHB2 (HA-tagged PHB2 construct) (human, UniProt Q99623 1-299, limits assumed).
T1 construct: Expressed by transfection in COS-7 or HEK293T cells; also called PHB2/REA construct; HA-tagged PHB2/REA (WT); not shown: HA tag
Kind of test: co-IP from COS-7 cells co-transfected with a Flag-ERAP1 construct and HA-PHB2; IP anti-Flag, IB anti-HA.

Test [2] addresses T1, HA-PHB2 (HA-tagged PHB2 construct). The test is described as above. This is another data set of the same source.

Where two headings read alike, the source gives them in different places.

T1 sequence (Q99623 whole entry): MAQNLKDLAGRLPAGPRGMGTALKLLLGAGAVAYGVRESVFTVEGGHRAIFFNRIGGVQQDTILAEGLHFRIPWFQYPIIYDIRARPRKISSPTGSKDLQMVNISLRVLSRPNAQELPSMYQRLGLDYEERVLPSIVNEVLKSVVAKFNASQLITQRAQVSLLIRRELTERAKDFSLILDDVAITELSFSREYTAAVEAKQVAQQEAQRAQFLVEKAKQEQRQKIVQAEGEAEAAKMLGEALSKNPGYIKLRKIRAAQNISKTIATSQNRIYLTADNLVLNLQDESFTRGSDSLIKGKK

B1: Flag-ERAP1 1-100 (other, not shown: small tags and cut ends)
chain: MEEILRKLQKEASGSKYKAIKESCTWALETLGGLDTIVKIPPHVLREKCLLPLQLALESKNVKLAQHALAGMQKLLSEERFVSMETDSDEKQLLNQILNA
notes: deletion construct
Consider B1, for which, in test [1], the binding result was “no binding”.

B2: Flag-ERAP1 1-250 (other, not shown: small tags and cut ends)
chain: MEEILRKLQKEASGSKYKAIKESCTWALETLGGLDTIVKIPPHVLREKCLLPLQLALESKNVKLAQHALAGMQKLLSEERFVSMETDSDEKQLLNQILNAVKVTPSLNEDLQVEVMKVLLCITYTPTFDLNGSAVLKIAEVCIETYISSCHQRSINTAVRATLSQMLSDLTLQLRQRQENTIIENPDVPQDFGNQGSTVESLCDDVVSVLTVLCEKLQAAINDSQQLQLLYLECILSVLSSSSSSMHLHR
notes: deletion construct
With B2, the binding result in test [1] was “binds”.

B3: ERAP1 435-2177 (Flag-ERAP1) (other, not shown: small tags and cut ends)
chain: GALDELSQGKGLSEGQVQLLLLRLEELKDGAEWSRDSMEINEADFRWQRRVLSSEHTPWESGNERSLDISISVTTDTGQTTLEGELGQTTPEDHSGNHKNSLKSPAIPEGKETLSKVLETEAVDQPDVVQRSHTVPYPDITNFLSVDCRTRSYGSRYSESNFSVDDQDLSRTEFDSCDQYSMAAEKDSGRSDVSDIGSDNCSLADEEQTPRDCLGHRSLRTAALSLKLLKNQEADQHSARLFIQSLEGLLPRLLSLSNVEEVDTALQNFASTFCSGMMHSPGFDGNSSLSFQMLMNADSLYTAAHCALLLNLKLSHGDYYRKRPTLAPGVMKDFMKQVQTSGVLMVFSQAWIEELYHQVLDRNMLGEAGYWGSPEDNSLPLITMLTDIDGLESSAIGGQLMASAATESPFAQSRRIDDSTVAGVAFARYILVGCWKNLIDTLSTPLTGRMAGSSKGLAFILGAEGIKEQNQKERDAICMSLDGLRKAARLSCALGVAANCASALAQMAAASCVQEEKEEREAQEPSDAITQVKLKVEQKLEQIGKVQGVWLHTAHVLCMEAILSVGLEMGSHNPDCWPHVFRVCEYVGTLEHNHFSDGASQPPLTISQPQKATGSAGLLGDPECEGSPPEHSPEQGRSLSTAPVVQPLSIQDLVREGSRGRASDFRGGSLMSGSSAAKVVLTLSTQADRLFEDATDKLNLMALGGFLYQLKKASQSQLFHSVTDTVDYSLAMPGEVKSTQDRKSALHLFRLGNAMLRIVRSKARPLLHVMRCWSLVAPHLVEAACHKERHVSQKAVSFIHDILTEVLTDWNEPPHFHFNEALFRPFERIMQLELCDEDVQDQVVTSIGELVEVCSTQIQSGWRPLFSALETVHGGNKSEMKEYLVGDYSMGKGQAPVFDVFEAFLNTDNIQVFANAATSYIMCLMKFVKGLGEVDCKEIGDCAPAPGAPSTDLCLPALDYLRRCSQLLAKIYKMPLKPIFLSGRLAGLPRRLQEQSASSEDGIESVLSDFDDDTGLIEVWIILLEQLTAAVSNCPRQHQPPTLDLLFELLRDVTKTPGPGFGIYAVVHLLLPVMSVWLRRSHKDHSYWDMASANFKHAIGLSCELVVEHIQSFLHSDIRYESMINTMLKDLFELLVACVAKPTETISRVGCSCIRYVLVTAGPVFTEEMWRLACCALQDAFSATLKPVKDLLGCFHSGTESFSGEGCQVRVAAPSSSPSAEAEYWRIRAMAQQVFMLDTQCSPKTPNNFDHAQSCQLIIELPPDEKPNGHTKKSVSFREIVVSLLSHQVLLQNLYDILLEEFVKGPSPGEEKTIQVPEAKLAGFLRYISMQNLAVIFDLLLDSYRTAREFDTSPGLKCLLKKVSGIGGAANLYRQSAMSFNIYFHALVCAVLTNQETITAEQVKKVLFEDDERSTDSSQQCSSEDEDIFEETAQVSPPRGKEKRQWRARMPLLSVQPVSNADWVWLVKRLHKLCMELCNNYIQMHLDLENCMEEPPIFKGDPFFILPSFQSESSTPSTGGFSGKETPSEDDRSQSREHMGESLSLKAGGGDLLLPPSPKVEKKDPSRKKEWWENAGNKIYTMAADKTISKLMTEYKKRKQQHNLSAFPKEVKVEKKGEPLGPRGQDSPLLQRPQHLMDQGQMRHSFSAGPELLRQDKRPRSGSTGSSLSVSVRDAEAQIQAWTNMVLTVLNQIQILPDQTFTALQPAVFPCISQLTCHVTDIRVRQAVREWLGRVGRVYDIIV
On to B3, for which the binding result in test [2] is listed as “no binding”.
